Source: patent US20210079109A1 (Regeneron, published 2021)
Substitutions are numbered along the chain they refer to.

B1: H4H11996P2 (antibody, V domains shown)
VH: QVQLVESGGGLVKPGGSLRLSCAASGFIFTDYFMNWIRQAPGKGLEWVSYISNSGNILYYADSVKGRFTISRDNAKASLYLQMSSLKAEDTAVYYCVRDPRMFYGMDVWGQGTTVTVSS
VL: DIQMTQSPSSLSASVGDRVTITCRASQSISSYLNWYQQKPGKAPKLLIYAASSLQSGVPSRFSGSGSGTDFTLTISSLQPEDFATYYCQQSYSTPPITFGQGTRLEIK
B2: H4H11990P2 (antibody, V domains shown)
VH: QVQLVESGGGLVKPGGSLRLSCATSGFTFTDYFMNWIRQAPGKGLEWVSYISNSGSIRYYADSVRGRFSISRDNAKNSLYLQMSSLRADDTAVYYCVRDPRQIYGMDVWGQGTTVTVSS
VL: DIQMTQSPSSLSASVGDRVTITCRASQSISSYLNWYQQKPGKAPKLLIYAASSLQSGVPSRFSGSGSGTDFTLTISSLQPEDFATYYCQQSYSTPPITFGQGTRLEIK
B3: H4H11992P2 (antibody, V domains shown)
VH: B1 VH with G15R, T30D, I57T, L58K, K76Y, A77N, S84N, K87R, M102S, F103Y
VL: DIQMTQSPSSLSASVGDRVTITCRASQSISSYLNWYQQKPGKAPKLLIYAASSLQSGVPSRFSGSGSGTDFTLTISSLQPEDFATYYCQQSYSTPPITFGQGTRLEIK
B4: H4H11993P2 (antibody, V domains shown)
VH: QVQLVESGGGLVKPGGSLRLSCAASGFTFSDYYMNWIRQAPGKGLEWVSYINGGGYTMYYADSVKGRFTISRDNAKNSLYLQMNSLRAEDTAVYYCARDRRTTVSIDYWGQGTLVTVSS
VL: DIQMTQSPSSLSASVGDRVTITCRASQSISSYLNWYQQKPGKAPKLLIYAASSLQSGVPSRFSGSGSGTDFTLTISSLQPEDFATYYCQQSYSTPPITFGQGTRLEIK
B5: H3M12361N (antibody, V domains shown)
VH: EVQLVESGGGLVQPGRSLRLSCTASGFTFGDHAMHWVRQAPGKGLEGVSSINWNSGIIGYAESVKGRFTISRDNAKNSLYLQMNNLRAEDTGLYYCARDIGVATLGIDYWGQGTLVTVSS
VL: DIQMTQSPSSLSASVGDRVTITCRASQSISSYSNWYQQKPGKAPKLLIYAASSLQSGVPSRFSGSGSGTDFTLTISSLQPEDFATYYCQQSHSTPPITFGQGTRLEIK
B6: H4H11997P2 (antibody, V domains shown)
VH: QVQLVESGGGLVKPGGSLRLSCAASGFTFSDYYMNWIRQAPGKGLEWITYINNGGYTKYYADSVKGRFIISRDNTKNSVHLQMNSLRAEDTAVYYCVRDPRMYYGMDVWGQGTTVTVSS
VL: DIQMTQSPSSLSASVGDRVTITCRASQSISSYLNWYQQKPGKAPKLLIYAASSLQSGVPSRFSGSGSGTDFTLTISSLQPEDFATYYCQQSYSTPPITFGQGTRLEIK
B7: H2M13022N (antibody, V domains shown)
VH: QVQLVESGGGLVQPGGSLRLSCAASGFIFGDYYINWIRQAPGKGLQWVSYTSSSGSTTYYEDSVKGRFTMSRDNAKNLVYLQMNSLRAEDTAAYYCVRDLRYNDGLDVWGQGTTVIVSS
VL: DILLTQSPSSLSAFVGDRVTITCRASQNIRTYLNWYQQKPGRAPKLLVYAASTLQSGVPSRFSGSGSGTDFTLTISSLQPEDFASYFCQQSYDNPPITFGQGTRLAIK
notes: also called H2bM13022N

Columns and labels:
[1] = molecular target: T1, recombinant human CD63 extracellular loop 2 expressed with a C-terminal Myc-Myc-hexahistidine (human); test: SPR Biacore, mAb captured, 25C
T1 construct: also called hCD63 EC loop 2-MMH; human CD63 EC loop 2-MMH
Protocol: (§1) Equilibrium dissociation constants (KD) for different CD63 (EC2) loop reagents binding to purified anti-CD63 monoclonal antibodies were determined using a real-time surface plasmon resonance based Biacore T200 biosensor or Biacore 2000 biosensor. All binding studies were performed in 10 mM HEPES, 150 mM NaCl, 3 mM EDTA, and 0.05% v/v Surfactant Tween-20, pH 7.4 (HBS-ET) running buffer at 25° C. and 37° C. The Biacore CMS sensor chip surface was first derivatized by amine coupling with either a rabbit anti-mouse Fc specific polyclonal antibody (GE Healthcare, Cat #BR100838) or an anti-human Fab kit (GE Healthcare, Cat #28958325) to capture anti-CD63 monoclonal antibodies. […] The association rate (Kₐ) and dissociation rate (kd) were determined by fitting the real-time binding sensorgrams to a 1:1 binding model with mass transport limitation using Scrubber 2.0c curve-fitting software. Binding dissociation equilibrium constant (KD) and dissociative half-life (t½) were calculated from the kinetic rates as: […]
(§2) Binding kinetics parameters for human CD63 EC loop 2 protein binding to different anti-CD63 monoclonal antibodies of the invention at 25° C. and 37° C. are shown in Tables 6 through 9.

[2] = molecular target: T2, recombinant human CD63 extracellular loop 2 expressed with a C-terminal human Fc tag (human); test: SPR Biacore, mAb captured, 25C
T2 construct: also called hCD63 EC loop 2-hFc; human CD63 EC loop 2-Fc
Protocol: as §1, §2

[3] = molecular target: T1, recombinant human CD63 extracellular …; test: SPR Biacore, mAb captured, 37C
Protocol: as §1, §2

[4] = molecular target: T2, recombinant human CD63 extracellular …; test: SPR Biacore, mAb captured, 37C
Protocol: as §1, §2

human CD63 [5] = molecular target: T3, human CD63 (human, UniProt P08962 2-238); test: ECL, LNCAP cells
T3 construct: stably transfected in NIH3T3/hCD63; The cell line is named under assay; also called hCD63
T3 sequence: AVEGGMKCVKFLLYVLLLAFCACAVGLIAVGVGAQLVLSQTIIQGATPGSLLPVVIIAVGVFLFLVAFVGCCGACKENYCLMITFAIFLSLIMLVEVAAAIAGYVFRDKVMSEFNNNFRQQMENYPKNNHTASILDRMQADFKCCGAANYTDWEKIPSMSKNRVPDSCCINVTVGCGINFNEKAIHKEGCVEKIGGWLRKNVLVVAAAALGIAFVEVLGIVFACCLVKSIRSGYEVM
Protocol: (§3) LNCAP cells were determined to have a lower human CD63 copy number than U87MG cells. Non-transfected NIH3T3 cells, which have no detectable expression of human CD63 by fluorescence activated cell sorting (FACS), were included as a negative control.
(§4) Briefly, cell lines were rinsed once in PBS buffer without Ca²⁺/Mg²⁺ and incubated for 10 minutes at 37° C. with Enzyme Free Cell Dissociation Solution (Millipore, Cat #S-004-C) to detach the cells. Cells were then washed once with PBS with Ca²⁺/Mg²⁺ and counted with a Cellometer™ Auto T4 cell counter (Nexcelom Bioscience, LLC). Approximately 2.0×10⁴ NIH3T3/hCD63, LNCAP, U87MG or NIH3T3 cells were seeded separately onto 96-well carbon electrode plates […]) and were then incubated for one hour at 37° C. Nonspecific binding sites were blocked with 2% BSA (w/v) in PBS with Ca²⁺/Mg²⁺ for one hour at room temperature (RT). Solutions containing anti-CD63 antibodies or isotype control antibodies at a range of concentrations (1.7 pM to 100 nM) in 0.5% BSA (w/v) in PBS with Ca²⁺/Mg²⁺, as well as control buffer alone, were then added in duplicate to the plate-bound NIH3T3/hCD63, LNCAP, U87MG or NIH3T3 cells and incubated for one hour at RT. Plates were subsequently washed to remove unbound antibodies using an AquaMax2000 plate washer with a cell washing head (MDS Analytical Technologies). […] Plates were washed and then incubated with Read Buffer (MSD, Cat #R92TD-2) according to the manufacturer's instructions. Luminescent signals were measured using a SECTOR Imager (MSD).

human CD63 [6] = molecular target: T3, human CD63; test: ECL, U87MG cells
Protocol: as §3, §4

human CD63 [7] = molecular target: T3, human CD63; test: ECL, NIH3T3/hCD63 cells
Protocol: as §3, §4

T1 sequence (chain, as listed by the source limits assumed): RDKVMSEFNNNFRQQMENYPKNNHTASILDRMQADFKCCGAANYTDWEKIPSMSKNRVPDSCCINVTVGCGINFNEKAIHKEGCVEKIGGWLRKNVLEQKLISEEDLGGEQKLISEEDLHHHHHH
T2 sequence (chain, as listed by the source limits assumed): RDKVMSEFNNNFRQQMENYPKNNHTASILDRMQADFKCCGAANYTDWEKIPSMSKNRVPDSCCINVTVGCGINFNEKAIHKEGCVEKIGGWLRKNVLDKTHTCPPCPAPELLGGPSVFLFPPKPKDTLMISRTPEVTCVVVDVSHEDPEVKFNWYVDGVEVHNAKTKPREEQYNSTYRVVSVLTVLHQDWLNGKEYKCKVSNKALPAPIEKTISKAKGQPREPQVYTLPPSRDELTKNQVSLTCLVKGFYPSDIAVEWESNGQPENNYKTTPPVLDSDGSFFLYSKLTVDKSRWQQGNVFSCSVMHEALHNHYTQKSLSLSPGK

| Binder | 100 nM Ag Bound (RU) [1] [RU] | Kd [1] [nM] | koff [1] [s⁻¹] | 100 nM Ag Bound (RU) [2] [RU] | Kd [2] [nM] | koff [2] [s⁻¹] | kon [2] [M⁻¹ s⁻¹] | t1/2 [2] [min] | 100 nM Ag Bound (RU) [3] [RU] | 100 nM Ag Bound (RU) [4] [RU] | Kd [4] [nM] | koff [4] [s⁻¹] | kon [4] [M⁻¹ s⁻¹] | t1/2 [4] [min] | EC50 (human CD63 [5]) [nM] | binding ratio at 3.7 nM vs NIH3T3 (human CD63 [5]) [fold] | EC50 (human CD63 [6]) [nM] | binding ratio at 3.7 nM vs NIH3T3 (human CD63 [6]) [fold] | EC50 (human CD63 [7]) [nM] | binding ratio at 3.7 nM vs NIH3T3 (human CD63 [7]) [fold] | also measured |
| --- | --- | --- | --- | --- | --- | --- | --- | --- | --- | --- | --- | --- | --- | --- | --- | --- | --- | --- | --- | --- | --- |
| B1 | 61 | 84.9 | 0.014 | 257 | 0.292 | 0.000135 | 461000 | 86 | 46 | 294 | 0.264 | 0.000142 | 538000 | 81 | 4.4 | 7 | 8.1 | 57 | 0.98 | 188 | kon [1]: 165000 M⁻¹ s⁻¹; t1/2 [1]: 0.8 min; Kd [3]: 361 nM; koff [3]: 0.0389 s⁻¹; kon [3]: 108000 M⁻¹ s⁻¹; t1/2 [3]: 0.3 min |
| B2 | 94 | 30.6 | 0.00591 | 275 | 0.209 | 8.99e-05 | 430000 | 128 | 81 | 338 | 0.104 | 4.96e-05 | 482000 | 233 | 5.1 | 6 | 4.8 | 66 | 0.93 | 168 | kon [1]: 193000 M⁻¹ s⁻¹; t1/2 [1]: 2 min; Kd [3]: 124 nM; koff [3]: 0.0198 s⁻¹; kon [3]: 160000 M⁻¹ s⁻¹; t1/2 [3]: 0.6 min |
| B3 | 53 | 213 | 0.0267 | 304 | 0.401 | 0.000257 | 641000 | 45 | 30 | 358 | 1.05 | 0.000682 | 647000 | 17 | 3.6 | 4 | 5.5 | 33 | 1.5 | 87 | kon [1]: 125000 M⁻¹ s⁻¹; t1/2 [1]: 0.4 min; Kd [3]: 12300 nM; koff [3]: 0.0814 s⁻¹; kon [3]: 6600 M⁻¹ s⁻¹; t1/2 [3]: 0.1 min |
| B4 | 10 |  |  | 194 | 2 | 0.000728 | 364000 | 16 | 3 | 156 | 7.92 | 0.00457 | 577000 | 3 | 6.7 | 8 | 17 | 62 | 2.5 | 227 |  |
| B5 | 43 | 3.12 | 0.000805 | 83 | 0.299 | 0.000132 | 441000 | 87 | 39 | 97 | 0.568 | 0.00037 | 651000 | 31 | 1.1 | 19 | 1.3 | 111 | 0.81 | 243 | kon [1]: 258000 M⁻¹ s⁻¹; t1/2 [1]: 14 min; Kd [3]: 5.85 nM; koff [3]: 0.00289 s⁻¹; kon [3]: 495000 M⁻¹ s⁻¹; t1/2 [3]: 4 min |
| B6 | 106 | 19.9 | 0.00371 | 291 | 0.149 | 6.2e-05 | 417000 | 186 | 74 | 342 | 0.045 | 1.91e-05 | 425000 | 603 | 1.9 | 11 | 1.7 | 99 | 0.94 | 266 | kon [1]: 186000 M⁻¹ s⁻¹; t1/2 [1]: 3.1 min; Kd [3]: 145 nM; koff [3]: 0.0192 s⁻¹; kon [3]: 132000 M⁻¹ s⁻¹; t1/2 [3]: 0.6 min |
| B7 | 48 | 13 | 0.00132 | 117 | 0.61 | 0.00028 | 460000 | 41 | 31 | 107 | 1.01 | 0.000562 | 557000 | 21 | 0.32 | 8 | 0.85 | 71 | 0.45 | 95 | kon [1]: 102000 M⁻¹ s⁻¹; t1/2 [1]: 9 min; Kd [3]: 21.5 nM; koff [3]: 0.00671 s⁻¹; kon [3]: 311000 M⁻¹ s⁻¹; t1/2 [3]: 2 min |
